Target: T1, human plasma kallikrein (human, UniProt P03952 20-390; P03952 391-638)
T1 construct: also called pKal; Human pKal
Assay: ELISA, biotinylated pKal signal over streptavidin background
Source text: Abbreviations used: “T/B” is the ELISA signal obtained using of the “target” (biotinylated plasma kallikrein) divided by the ELISA signal of the “background” (streptavidin); both of which were coated on microtiter plates, “nd” is not determined. The symbol “q” refers to the amber suppressible stop codon (TAG), which is translated as glutamine (Q) in strains of E. coli such as the TG1 cells that were used to express the Fab fragments.

T1 sequence (P03952 20-390, chain 1 of 2): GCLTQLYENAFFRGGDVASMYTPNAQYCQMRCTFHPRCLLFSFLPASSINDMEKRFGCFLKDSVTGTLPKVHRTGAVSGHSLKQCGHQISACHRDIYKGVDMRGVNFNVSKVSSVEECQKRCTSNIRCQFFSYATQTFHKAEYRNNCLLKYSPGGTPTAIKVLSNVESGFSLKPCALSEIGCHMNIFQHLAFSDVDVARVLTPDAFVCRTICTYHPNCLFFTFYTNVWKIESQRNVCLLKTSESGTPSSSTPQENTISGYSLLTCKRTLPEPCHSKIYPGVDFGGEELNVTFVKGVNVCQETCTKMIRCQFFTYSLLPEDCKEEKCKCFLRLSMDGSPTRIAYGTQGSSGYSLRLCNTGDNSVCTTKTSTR
T1 sequence (P03952 391-638, chain 2 of 2): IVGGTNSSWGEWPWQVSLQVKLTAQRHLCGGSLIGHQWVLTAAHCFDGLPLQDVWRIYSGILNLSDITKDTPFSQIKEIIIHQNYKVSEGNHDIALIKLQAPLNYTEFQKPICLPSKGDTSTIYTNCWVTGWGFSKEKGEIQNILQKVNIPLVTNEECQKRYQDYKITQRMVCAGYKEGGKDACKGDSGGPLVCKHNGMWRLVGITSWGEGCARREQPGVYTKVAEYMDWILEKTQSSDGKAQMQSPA

ELISA (T/B)	Binder
32.8 T/B	M10-E06 (Fab, V domains shown, HC as printed runs into CH1) VH: EVQLLESGGGLVQPGGSLRLSCAASGFTFSLYRMFWVRQAPGKGLEWVSSIWSSGGPTMYADSVKGRFTISRDNSKNTLYLQMNSLRAEDTAVYYCAREYPSTYYFDYWGQGTLVTVSS VL: DIQMTQSPSSLSASVGDRVTITCRASQSISTYLNWYQQKPGKAPKLLIYGASSLQSGVPSRFSGSGSGTDFTLTISSLQPEDFTIYYCQQSYSDPYTFGQGTKLDIK
3.5 T/B	M9-H02 (Fab, V domains shown, HC as printed runs into CH1) VH: EVQLLESGGGLVQPGGSLRLSCAASGFTFSAYMMIWVRQAPGKGLEWVSVIYPSGGVTMYADSVKGRFTISRDNSKNTLYLQMNSLRAEDTAVYYCARGTVGASDAFDIWGQGTMVTVSS VL: DIQMTQSPSSLSASVGDRVIITCRASRSIATYLNWYQQKPGKAPNLLIFGASTLQSGVPSRFSGSGSGTDFTLTISDLQPEDFATYYCQQSFSDPYTFGQGTNLEMK
20.8 T/B	M10-A12 (Fab, V domains shown, HC as printed runs into CH1) VH: EVQLLESGGGLVQPGGSLRLSCAASGFTFSLYLMHWVRQAPGKGLEWVSSIYSSGGFTTYADSVKGRFTISRDNSKNTLYLQMNSLRAEDTAVYYCARDTDYGMDVWGQGTTVTVSS VL: DIQMTQSPLSLSAFVGDRVTITCRASRDISVYLNWYQLKSGKAPKLLIYGASSLQSGVPSRFSGSGSGTDFTLTITSLQPEDFATYYCQQSYSIPFTFGGGTKVETK
7 T/B	M9-F09 (Fab, V domains shown, HC as printed runs into CH1; (as printed for M28-E01)) VH: EVQLLESGGGLVQPGGSLRLSCAASGFTFSSYPMGWVRQAPGKGLEWVSRISSSGGMTIYADSVKGRFTISRDNSKNTLYLQMNSLRAEDTAVYYCARDDWNVGMDVWGQGTTVTVSS VL: DIQMTQSPSSLSASVGDRVTITCRASQSISSYLNWYQQKPGKAPKLLIYAASSLQSGVPSKFSGSGSGTDYTLTISSLQPEDFATYYCQQTYTTPWTFGQGTKVEIK
5.3 T/B	M10-C11 (Fab, V domains shown, HC as printed runs into CH1) VH: EVQLLESGGGLVQPGGSLRLSCAASGFTFSMYPMMWVRQAPGKGLEWVSYISPSGGMTDYADSVKGRFTISRDNSKNTLYLQMNSLRAEDMAVYYCARVAGSSDAFDIWGQGTMVTVSS VL: DIQMTQSPSSLSASVGDRVTITCRASQSISIYLNWYQQKPEKAPKLLIFAASTLQSGVPSRFSGSGSGTDFTLTISNLQPEDFATYYCQQSHSIPPTFGLGTKVEVK
8.4 T/B	M9-F10 (Fab, V domains shown, HC as printed runs into CH1) VH: EVQLLESGGGLVQPGGSLRLSCAASGFTFSDYDMEWVRQAPGKGLEWVSSISPSGGSTIYADSVKGRFTISRDNSKNTLYLQMNSLRAEDTAVYYCARQGLLTAFDIWGQGTMVTVSS VL: DIQMTQSPSSLSASVGDRVTITCRASQSINTYLNWYQQKPGKAPKVLIHAASTLESGVPSRFSGSGSGTDFTLTISSLQPEDFATYYCQQSYSTPYTFGQGTKLEVR
6.4 T/B	M10-D11 (Fab, V domains shown, HC as printed runs into CH1) VH: EVQLLESGGGLVQPGGSLRLSCAASGFTFSAYPMNWVRQAPGKGLEWVSRISSSGGNTSYADSVKGRFTISRDNSKNTLYLQMNSLRAEDTAVYYCALGYLGYWGQGTLVTVSS VL: not shown
35.9 T/B	M9-D08 (Fab, V domains shown, HC as printed runs into CH1) VH: EVQLLESGGGLVQPGGSLRLSCAASGFTFSWYKMMWVRQAPGKGLEWVSSIYPSGGWTNYADSVKGRFTISRDNSKNTLYLQMNSLRAEDTAVYYCTRGSPWGDDAFDIWGQGTMVTVSS VL: DIQMTQSPSSLSASVGDRVTLTCRASRTISFYLNWYQQKAGKAPELLIYGGSSLHSGVPSRFSGSGSGTDFSLTISNLQPEDIAVYYCQQSFSSPWTFGQGTKVEIK
14.1 T/B	M10-B09 (Fab, V domains shown, HC as printed runs into CH1; HC amber q (LqMNS) written as Q) VH: EVQLLESGGGLVQPGGSLRLSCAASGFTFSWYEMSWVRQAPGKGLEWVSRIWPSGGVTMYADSVKGRFTISRDNSKNTLYLQMNSLRAEDTAVYYCTRTSITTVGMDVWGQGTTVTVSS VL: DIQMTQSPSSLSASVGDGVTITCRASQSISTYLNWYQQRPGKAPKLLIYGASSLQSGVPSRFSGSGSGTDFTLTISSLQREDFATYYCQQSFSTPWTFGQGTRVEIK
4.4 T/B	M9-H03 (Fab, V domains shown, HC as printed runs into CH1) VH: EVQLLESGGGLVQPGGSLRLSCAASGFTFSWYSMGWVRQAPGKGLEWVSYIVPSGGYTMYADSVKGRFTISRDNSKNTLYLQMNSLRAEDTAVYYCARDPGVSYYYYGMDVWGQGTTVTVSS VL: QYELTQAPSVSVAPGQTASITCSGDKLGNRYTSWYQQKPGQSPVLVIFQDNKRPSGIPERFSGSNSGNTATLTISGTQAMDEADYYCQALDSNTYVFGTGTKVTVL
43.2 T/B	M11-E04 (Fab, V domains shown, HC as printed runs into CH1) VH: EVQLLESGGGLVQPGGSLRLSCAASGFTFSMYHMNWVRQAPGKGLEWVSGIVSSGGVTFYADSVKGRFTISRDNSKNTLYLQMNSLRAEDTAVYYCARITTVTTGGAFDIWGQGTMVTVSS VL: DIQMTQSPSSLSASVGDRVTITCRASQSISIYLTWYQHRPGKAPNLLIYGAATLQTGVPSRFSGSGSGTDFTLTIRGLQPEDFATYYCQQTFSLPRTFGQGTKLEIK
33.7 T/B	M10-A03 (Fab, V domains shown, HC as printed runs into CH1) VH: EVQLLESGGGLVQPGGSLRLSCAASGFTFSPYPMQWVRQAPGKGLEWVSSISSSGGMTEYADSVKGRFTISRDNSKNTLYLQMNSLRAEDTAVYYCARDDYGGKGGAFDIWGQGTMVTVSS VL: DIQMTQSPSSLSASVGDRVTITCRASQRISFYLNWFQQKPGKAPNLLIYGASSLQSGVPSRFSGSGSGTDFTLTISSLQPKDFGTYYCQQTFSTPNTFGQGTKLEIK
7.1 T/B	M10-G09 (Fab, V domains shown, HC as printed runs into CH1) VH: EVQLLESGGGLVQPGGSLRLSCAASGFTFSQYGMQWVRQAPGKGLEWVSSIRSSGGATRYADSVKGRFTISRDNSKNTLYLQMNSLRAEDTAVYYCARDGYYDSSGYPDYWGQGTLVTVSS VL: DIQMTQSPSSLSASVGDSVTITCRASQSISGYINWYQQKAGKAPKLLIYAASSLQSGVPSRFSGSGSGTHFTLTISSLQPEDFATYYCQQYVSYPFTFGPGTKVDIK
41.4 T/B	M11-E05 (Fab, V domains shown, HC as printed runs into CH1) VH: EVQLLESGGGLVQPGGSLRLSCAASGFTFSWYTMGWVRQAPGKGLEWVSWIYFGGLTTYADSVKGRFTISRDNSKNTLYLQMNSLRAEDTAVYYCARLGGPLDAFDIWGQGTMVTVSS VL: DIQMTQSPSSLSASVGDTVTITCRTSQTINNYLNWYQQRPGEAPKVLIYATHTLESGVPSRFSGSGSGTDFTLTIGSLQPEDFATYYCQQSFAFPYTFGQGTKVEIT
4.8 T/B	M10-F09 (Fab, V domains shown, HC as printed runs into CH1) VH: EVQLLESGGGLVQPGGSLRLSCAASGFTFSNYDMMWVRQAPGKGLEWVSYISPSGGFTRYADSVKGRFTISRDNSKNTLYLQMNSLRAEDTATYYCAKDIYYYNWGPSHYFDSWGQGTLVTVSS VL: DIQMTQSPSSLSASVGDRVTITCRASQTIDDDLIWYQQKPGRAPKLLIYAASSLQSGVPSRFSGSGSGTDFTLTITSLQPEDFATYYCQQSYNIPRTFGQGTKLESK
11.7 T/B	M11-E01 (Fab, V domains shown, HC as printed runs into CH1) VH: EVQLLESGGGLVQPGGSLRLSCAASGFTFSTYEMYWVRQAPGKGLEWVSGIGSSGGMTMYADSVKGRFTISRDNSKNTLYLQMNSLRAEDTAMYYCAREQPGIAALQFWGQGTLVTVSS VL: not shown
25 T/B	M11-A10 (Fab, V domains shown, HC as printed runs into CH1; also called Ml1-A10) VH: EVQLLESGGGLVQPGGSLRLSCAASGFTFSNYWMMWVRQAPGKGLEWVSGIGSSGGFTSYADSVKGRFTISRDNSKNTLYLQMNSLRAEDTAVYYCAKGSYSDYGVFESWGQGTLVTVSS VL: DIQMTQSPSSLSASVGDRVAITCRASQSIDTYLNWYQQKPGKAPKLLIYDASNLEIGVPSRFSGSGSGTDFTFIINSLQPEDVATYYCQHYLYAPYSFGQGTKLEIK
12.6 T/B	M11-E06 (Fab, V domains shown, HC as printed runs into CH1) VH: EVQLLESGGGLVQPGGSLRLSCAASGFTFSQYAMHWVRQAPGKGLEWVSSIYPSGGFTLYADSVKGRFTISRDNSKNTLYLQMNSLRAEDTAMYYCARGGWLAGGELLNWGQGTLVTVSS VL: DIQMTQSPSSLSASIGDRVTISCRASRGIGTYLNWYQQHAGKAPKLLIRAASSLETGVPPRFSGSGSGTDFTLTISSLQSDDFATYYCQESFTNVYNFGQGTKLEIK
18.8 T/B	M9-E04 (Fab, V domains shown, HC as printed runs into CH1) VH: EVQLLESGGGLVQPGGSLRLSCAASGFTFSEYDMMWVRQAPGKGLEWVSSIGSSGGMTYYADSVKGRFTISRDNSKNTLYLQMNSLRAEDTAVYYCARDQVAAAAIDYWGQGTLVTVSS VL: DIQMIQSPSSLSASVGDRVTITCRASQSISGYLNWYQQRSGKAPKLLIFAASNLQTGVPSRFSGSGSGTDFTLTINNLQPEDFATYYCQQSHTPPKTFGPGTKVDIK
16.1 T/B	M9-H04 (Fab, V domains shown, HC as printed runs into CH1) VH: EVQLLESGGGLVQPGGSLRLSCAASGFTFSAYTMWWVRQAPGKGLEWVSSIWPSGGSTFYADSVKGRFTISRDNSKNTLYLQMNSLRAEDTAVYYCARTYDSSAGEVDYWGQGTLVTVSS VL: not shown
7.8 T/B	M9-C10 (Fab, V domains shown, HC as printed runs into CH1) VH: EVQLLESGGGLVQPGGSLRLSCAASGFTFSLYPMQWVRQAPGKGLEWVSSIGSSGGMTFYADSVKGRFTISRDNSKNTLYLQMNSLRAEDTAVYYCTREVGAAGFAFDIWGQGTMVTVSS VL: DIQMTQSPSSLSASVGDRVTITCRASQGISSYLNWYQQKPGNAPNLLIYGASSLQSGVPSRFSGSGSGTDFTLTISSLQPEDFATYYCQESYSTLFTFGPGTTVEIK
10.9 T/B	M9-F08 (Fab, V domains shown, HC as printed runs into CH1; LC amber q (QMTqSPS) written as Q) VH: EVQLLESGGGLVQPGGSLRLSCAASGFTFSPYAMTWVRQAPGKGLEWVSVIYPSGGFTDYADSVKGRFTISRDNSKNTLYLQMNSLRAEDTAMYYCARASGSYLDAFDIWGQGTMVTVSS VL: not shown
4.8 T/B	M9-G08 (Fab, V domains shown, HC as printed runs into CH1) VH: EVQLLESGGGLVQPGGSLRLSCAASGFTFSYYTMLWVRQAPGKGLEWVSSIYPSGGFTMYADSVKGRFTISRDNSKNTLYLQMNSLRAEDTAVYYCARVDTAMAMIDYWGQGTLVTVSS VL: not shown

Reference: patent US20260184815A1 (published 2026)
